According to article doi:10.1101/2022.06.17.496531 (bioRxiv, 2022):

How the values were obtained:
Test in all cases: native MS
[1] = target: long neurotoxin 2 from O. hannah (Ophiophagus hannah, UniProt A8N285)
[2] = target: long neurotoxin 2 from N. melanoleuca (Naja melanoleuca, UniProt P01388)
[3] = target: long neurotoxin from N. melanoleuca (Naja melanoleuca, UniProt P0DQQ2)
[4] = target: long neurotoxin 4 from N. naja (Naja naja, UniProt P25672)

Measured: binding result

B1: 2554_01_D11 IgG (antibody, V domains shown)
VH: QVQLVQSGAEVKKPGSSVKVSCKASGGTFSSYAISWVRQAPGQGLEWMGGIIPIFGTANYAQKFQGRVTITADESTSTAYMELRSLRSDDTAVYYCARDNLGYCSGGSCYSDYYYYYMDVWGQGTLVTVSS
VL: NFMLTQPRSVSESPGKTVTISCTRSSGSIGSDYVHWYQQRPGSSPTTVIYEDNQRPSGVPDRFSGSIDSSSNSASLTISGLKTEDEADYYCQSYDRSNHEVVFGGGTKLTVL
binds: [1] | [2] | [3] | [4]
